What was measured:
Conditions in all cases: remark: other sources report otherwise
[1] = target: SARS-CoV-2 RBD (Table A) (SARS-CoV-2), P0DTC2; experiment: ELISA, purified IgG
[2] = target: SARS-CoV Spike trimer (Table A) (SARS-CoV), P59594; experiment: ELISA, purified IgG
[3] = target: SARS-CoV-2 S receptor-binding domain (SRBD), residues 319-541 (SARS-CoV-2), P0DTC2; experiment: ELISA on coated antigen

B1: COV2-2952 (antibody, V domains shown)
VH: EVQLVESGGGLVQPGGSLRLSCAASGLTVRSNYMTWVRQTPGKGLEWVSVIYSGGSTFYADSVKGRFTISRDNSKNTVYLQMNSLRAEDTAVYYCARDLVTYGLDVWGQGTTVTVSS
VL: DIQLTQSPSFLSASVGDRVTITCRASQGISNYLAWYQQKPGTAPNLLIYAASTLQSGVPSRFSGSGSGTEFTLTISSLQPEDFATYYCQLLNSHPLTFGQGTRLEIK
B1 showed an ELISA OD 450 nm [1] of 3.55 OD 450 nm and an ELISA OD 450 nm [2] of 0.15 OD 450 nm.

B2: COV2-2165 (antibody, V domains shown)
VH: EVQLVESGGGLVQPGGSLRLSCAASGLTVRSNYMTWVRQTPGKGLEWVSVIYSGGSTFYADSVKGRFTISRDNSKNTVYLQMNSLRAEDTAVYYCARDLVTYGLDVWGQGTTVTVSS
VL: DIQLTQSPSFLSASVGDRVTITCRASQGISNYLAWYQQKPGTAPNLLIYAASTLQSGVPSRFSGSGSGTEFTLTISSLQPEDFATYYCQLLNSHPLTFGQGTRLEIK
B2 was tested, and the ELISA OD 450 nm [1] was 4.2 OD 450 nm, the ELISA OD 450 nm [2] was 0.17 OD 450 nm and the EC50 [3] was 0.6 ng/mL.

B3: COV2-2391 (antibody, V domains shown)
VH: QVQLVQSGAEVKKPGASVKVSCKASGYTFGSFDINWVRQATGQGLEWMGRMNSNSGNTAYAQKFQGRVTMTRDTSTNTAYMELSSLRSEDTAMYYCARMRSGWPTHGRPDDFWGRGTLVTVSS
VL: QSVLTQAPSASGTPGQRVTISCSGSNSNIGSYTINWYQQLPGTAPKLLIYGNDQRTSGVPDRFSGSKFGTSASLAISGLQSEDENNYYCAVWDDSLNGLVFGGGTKLTVL
Binder B3 has an ELISA OD 450 nm [1] of 3.65 OD 450 nm and an ELISA OD 450 nm [2] of 0.1 OD 450 nm.

B4: COV2-2096 (antibody, V domains shown)
VH: QVQLVQSGAEVKKPGASVKVSCKASGYTFGSFDINWVRQATGQGLEWMGRMNSNSGNTAYAQKFQGRVTMTRDTSTNTAYMELSSLRSEDTAMYYCARMRSGWPTHGRPDDFWGRGTLVTVSS
VL: QSVLTQAPSASGTPGQRVTISCSGSNSNIGSYTINWYQQLPGTAPKLLIYGNDQRTSGVPDRFSGSKFGTSASLAISGLQSEDENNYYCAVWDDSLNGLVFGGGTKLTVL
Work on B4 yielded an ELISA OD 450 nm [1] of 4.3 OD 450 nm, an ELISA OD 450 nm [2] of 0.11 OD 450 nm and an EC50 [3] of 1 ng/mL.

B5: COV2-2130 (antibody, V domains shown)
VH: EVQLVESGGGLVKPGGSLRLSCAASGFTFRDVWMSWVRQAPGKGLEWVGRIKSKIDGGTTDYAAPVKGRFTISRDDSKNTLYLQMNSLKTEDTAVYYCTTAGSYYYDTVGPGLPEGKFDYWGQGTLVTVSS
VL: not shown
Binder B5 has an ELISA OD 450 nm [2] of 0.1 OD 450 nm.

Source: patent US20210300999A1
